Data as given in patent publication US20140274782A1, “AFFINITY REAGENTS AND METHODS FOR DETECTION, PURIFICATION, AND PROTEOMIC ANALYSIS OF METHYLATED PROTEINS” (The Board of Trustees of the Leland Stanford Junior …, priority 2013, published 2014).

T1: G9a and GLP (Homo sapiens, UniProt Q96KQ7+Q9H9B1)
T1 sequence (Q96KQ7 2-1210 limits assumed): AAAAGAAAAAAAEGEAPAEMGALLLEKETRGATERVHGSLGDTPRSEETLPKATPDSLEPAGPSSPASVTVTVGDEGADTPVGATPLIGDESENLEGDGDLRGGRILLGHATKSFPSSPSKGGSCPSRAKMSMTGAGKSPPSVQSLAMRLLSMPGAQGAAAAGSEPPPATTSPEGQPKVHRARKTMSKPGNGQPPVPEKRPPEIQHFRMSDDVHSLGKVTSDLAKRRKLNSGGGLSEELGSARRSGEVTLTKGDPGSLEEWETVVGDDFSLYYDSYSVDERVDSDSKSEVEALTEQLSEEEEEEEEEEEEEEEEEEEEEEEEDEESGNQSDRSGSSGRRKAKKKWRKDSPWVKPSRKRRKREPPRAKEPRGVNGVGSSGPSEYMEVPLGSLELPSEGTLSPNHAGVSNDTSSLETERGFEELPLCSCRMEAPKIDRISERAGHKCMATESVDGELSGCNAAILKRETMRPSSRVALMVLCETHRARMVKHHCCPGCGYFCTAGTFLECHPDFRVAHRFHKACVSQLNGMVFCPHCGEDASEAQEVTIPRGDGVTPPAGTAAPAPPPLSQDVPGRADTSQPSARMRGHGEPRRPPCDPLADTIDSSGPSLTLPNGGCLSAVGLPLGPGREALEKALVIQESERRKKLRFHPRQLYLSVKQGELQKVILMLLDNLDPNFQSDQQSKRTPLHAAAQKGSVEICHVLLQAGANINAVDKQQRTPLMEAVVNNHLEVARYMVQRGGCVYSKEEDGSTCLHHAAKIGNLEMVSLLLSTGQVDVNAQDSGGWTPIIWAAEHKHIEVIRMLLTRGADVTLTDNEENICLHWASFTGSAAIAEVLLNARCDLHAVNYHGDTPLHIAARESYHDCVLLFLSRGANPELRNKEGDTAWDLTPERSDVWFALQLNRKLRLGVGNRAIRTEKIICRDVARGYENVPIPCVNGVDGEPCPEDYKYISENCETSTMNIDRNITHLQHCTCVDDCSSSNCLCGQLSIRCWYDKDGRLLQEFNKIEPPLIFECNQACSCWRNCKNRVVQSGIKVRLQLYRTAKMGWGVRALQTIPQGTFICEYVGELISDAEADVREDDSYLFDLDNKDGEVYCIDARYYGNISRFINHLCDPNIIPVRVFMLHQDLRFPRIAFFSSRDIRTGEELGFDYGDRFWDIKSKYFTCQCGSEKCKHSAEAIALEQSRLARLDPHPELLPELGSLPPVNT
T1 sequence (Q9H9B1 2-1298 limits assumed): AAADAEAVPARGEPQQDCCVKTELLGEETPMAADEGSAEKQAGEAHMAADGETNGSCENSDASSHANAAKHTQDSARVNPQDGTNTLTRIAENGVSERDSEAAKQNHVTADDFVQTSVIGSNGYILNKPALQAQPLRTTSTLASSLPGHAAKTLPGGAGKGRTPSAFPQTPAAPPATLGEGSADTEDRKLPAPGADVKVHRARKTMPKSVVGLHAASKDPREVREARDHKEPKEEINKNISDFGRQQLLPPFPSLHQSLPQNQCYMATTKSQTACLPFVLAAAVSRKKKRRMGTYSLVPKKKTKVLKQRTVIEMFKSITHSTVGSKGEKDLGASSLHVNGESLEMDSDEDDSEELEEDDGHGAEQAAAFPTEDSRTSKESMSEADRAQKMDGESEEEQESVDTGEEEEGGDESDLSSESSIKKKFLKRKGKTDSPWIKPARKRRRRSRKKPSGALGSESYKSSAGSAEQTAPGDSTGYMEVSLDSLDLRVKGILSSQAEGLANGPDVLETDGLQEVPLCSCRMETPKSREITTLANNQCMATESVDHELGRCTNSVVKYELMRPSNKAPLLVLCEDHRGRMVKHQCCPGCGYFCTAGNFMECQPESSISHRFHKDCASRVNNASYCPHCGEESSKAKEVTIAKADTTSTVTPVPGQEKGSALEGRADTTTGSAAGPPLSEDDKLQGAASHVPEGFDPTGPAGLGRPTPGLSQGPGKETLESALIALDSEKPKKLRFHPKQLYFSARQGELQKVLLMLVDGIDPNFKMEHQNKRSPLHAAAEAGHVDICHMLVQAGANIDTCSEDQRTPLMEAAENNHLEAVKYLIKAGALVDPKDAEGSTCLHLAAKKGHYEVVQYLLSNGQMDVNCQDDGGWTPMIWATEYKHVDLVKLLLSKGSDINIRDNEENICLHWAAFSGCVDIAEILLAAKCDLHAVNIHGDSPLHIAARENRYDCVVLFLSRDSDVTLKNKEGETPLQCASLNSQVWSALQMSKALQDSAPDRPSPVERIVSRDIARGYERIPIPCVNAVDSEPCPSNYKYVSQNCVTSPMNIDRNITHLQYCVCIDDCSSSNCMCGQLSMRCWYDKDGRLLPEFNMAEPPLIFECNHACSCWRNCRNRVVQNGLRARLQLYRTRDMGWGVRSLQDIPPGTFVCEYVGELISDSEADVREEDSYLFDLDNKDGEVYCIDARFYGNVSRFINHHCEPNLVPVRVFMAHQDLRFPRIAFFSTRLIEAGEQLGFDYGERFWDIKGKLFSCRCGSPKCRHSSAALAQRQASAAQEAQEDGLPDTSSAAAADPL


How the values were obtained:
[1] = system: 3×MBT domain of L3MBTL1; assay: Triple SILAC pull-down, 3xMBT/3xMBTD355N ratio (cytoplasmic, nuclear and chromatin fractions of 293T cells); format: binding, human; settings: SILAC ratio, pull-down 3xMBT vs 3xMBTD355N; for 3xMBT/D355N UNC Heavy: experiment with UNC0638 in heavy SILAC media; for 3xMBT/D355N UNC Light: experiment with UNC0638 in light SILAC media;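 as to all read-outs here: proteins quantified with MaxQuant, requiring at least two unique peptides and quantification in both label directions, normalized to the mean of proteins from a digested loading control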
[2] = biological target: T1, G9a and GLP; assay: Triple SILAC pull-down after UNC0638 treatment of 293T cells, DMSO/UNC0638 ratio of protein captured by 3×MBT; format: cell-based; set-up: endogenous in cells; host or cells: HEK 293T; settings: for Relative to UNC0638 UNC Heavy / Relative to UNC0638 UNC Light: SILAC ratio DMSO/UNC0638 of protein pulled down with 3xMBT; for Relative to UNC0638 UNC Heavy: UNC0638 in heavy SILAC media; for Relative to UNC0638 UNC Light: UNC0638 in light SILAC media; for Relative to UNC0638 Average: average of UNC Light and UNC Heavy experiments;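 as to all read-outs here: mass spectrometry (Q-Exactive) SILAC quantitation, DMSO/UNC0638 ratio computed after subtracting 3×MBTD355N mutant pull-down background, only proteins with at least twofold 3×MBT over mutant signal considered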

Row | Relative to UNC0638 UNC Heavy [2] | Relative to UNC0638 UNC Light [2] | Relative to UNC0638 Average [2] | Molecule | 3xMBT/D355N UNC Heavy [1] | 3xMBT/D355N UNC Light [1]
1 | 0.25 log base 2 | 0.12 log base 2 | 0.19 log base 2 | GNB1L (protein, UniProt Q9BYB4 1-327, looked up) Guanine nucleotide-binding …: MTAPCPPPPPDPQFVLRGTQSPVHALHFCEGAQAQGRPLLFSGSQSGLVHIWSLQTRRAVTTLDGHGGQCVTWLQTLPQGRQLLSQGRDLKLCLWDLAEGRSAVVDSVCLESVGFCRSSILAGGQPRWTLAVPGRGSDEVQILEMPSKTSVCALKPKADAKLGMPMCLRLWQADCSSRPLLLAGYEDGSVVLWDVSEQKVCSRIACHEEPVMDLDFDSQKARGISGSAGKALAVWSLDWQQALQVRGTHELTNPGIAEVTIRPDRKILATAGWDHRIRVFHWRTMQPLAVLAFHSAAVQCVAFTADGLLAAGSKDQRISLWSLYPRA | 2.24 log base 2 | 2.60 log base 2
2 | 0.34 log base 2 | 0.05 log base 2 | 0.19 log base 2 | GIGYF2 (protein, UniProt Q6Y7W6 2-1299, looked up) GRB10-interacting GYF protein …: AAETQTLNFGPEWLRALSSGGSITSPPLSPALPKYKLADYRYGREEMLALFLKDNKIPSDLLDKEFLPILQEEPLPPLALVPFTEEEQRNFSMSVNSAAVLRLTGRGGGGTVVGAPRGRSSSRGRGRGRGECGFYQRSFDEVEGVFGRGGGREMHRSQSWEERGDRRFEKPGRKDVGRPNFEEGGPTSVGRKHEFIRSESENWRIFREEQNGEDEDGGWRLAGSRRDGERWRPHSPDGPRSAGWREHMERRRRFEFDFRDRDDERGYRRVRSGSGSIDDDRDSLPEWCLEDAEEEMGTFDSSGAFLSLKKVQKEPIPEEQEMDFRPVDEGEECSDSEGSHNEEAKEPDKTNKKEGEKTDRVGVEASEETPQTSSSSARPGTPSDHQSQEASQFERKDEPKTEQTEKAEEETRMENSLPAKVPSRGDEMVADVQQPLSQIPSDTASPLLILPPPVPNPSPTLRPVETPVVGAPGMGSVSTEPDDEEGLKHLEQQAEKMVAYLQDSALDDERLASKLQEHRAKGVSIPLMHEAMQKWYYKDPQGEIQGPFNNQEMAEWFQAGYFTMSLLVKRACDESFQPLGDIMKMWGRVPFSPGPAPPPHMGELDQERLTRQQELTALYQMQHLQYQQFLIQQQYAQVLAQQQKAALSSQQQQQLALLLQQFQTLKMRISDQNIIPSVTRSVSVPDTGSIWELQPTASQPTVWEGGSVWDLPLDTTTPGPALEQLQQLEKAKAAKLEQERREAEMRAKREEEERKRQEELRRQQEEILRRQQEEERKRREEEELARRKQEEALRRQREQEIALRRQREEEERQQQEEALRRLEERRREEEERRKQEELLRKQEEEAAKWAREEEEAQRRLEENRLRMEEEAARLRHEEEERKRKELEVQRQKELMRQRQQQQEALRRLQQQQQQQQLAQMKLPSSSTWGQQSNTTACQSQATLSLAEIQKLEEERERQLREEQRRQQRELMKALQQQQQQQQQKLSGWGNVSKPSGTTKSLLEIQQEEARQMQKQQQQQQQHQQPNRARNNTHSNLHTSIGNSVWGSINTGPPNQWASDLVSSIWSNADTKNSNMGFWDDAVKEVGPRNSTNKNKNNASLSKSVGVSNRQNKKVEEEEKLLKLFQGVNKAQDGFTQWCEQMLHALNTANNLDVPTFVSFLKEVESPYEVHDYIRAYLGDTSEAKEFAKQFLERRAKQKANQQRQQQQLPQQQQQQPPQQPPQQPQQQDSVWGMNHSTLHSVFQTNQSNNQQSNFEAVQSGKKKKKQKMVRADPSLLGFSVNASSERLNMGEIETLDDY | 2.62 log base 2 | 3.04 log base 2
3 | 0.05 log base 2 | 0.34 log base 2 | 0.19 log base 2 | FUS (protein, UniProt P35637 1-526, looked up) RNA-binding protein FUS: MASNDYTQQATQSYGAYPTQPGQGYSQQSSQPYGQQSYSGYSQSTDTSGYGQSSYSSYGQSQNTGYGTQSTPQGYGSTGGYGSSQSSQSSYGQQSSYPGYGQQPAPSSTSGSYGSSSQSSSYGQPQSGSYSQQPSYGGQQQSYGQQQSYNPPQGYGQQNQYNSSSGGGGGGGGGGNYGQDQSSMSSGGGSGGGYGNQDQSGGGGSGGYGQQDRGGRGRGGSGGGGGGGGGGYNRSSGGYEPRGRGGGRGGRGGMGGSDRGGFNKFGGPRDQGSRHDSEQDNSDNNTIFVQGLGENVTIESVADYFKQIGIIKTNKKTGQPMINLYTDRETGKLKGEATVSFDDPPSAKAAIDWFDGKEFSGNPIKVSFATRRADFNRGGGNGRGGRGRGGPMGRGGYGGGGSGGGGRGGFPSGGGGGGGQQRAGDWKCPNPTCENMNFSWRNECNQCKAPKPDGPGGGPGGSHMGGNYGDDRRGGRGGYDRGGYRGRGGDRGGFRGGRGGGDRGGFGPGKMDSRGEHRQDRRERPY | 2.17 log base 2 | 2.10 log base 2
4 | 0.16 log base 2 | 0.22 log base 2 | 0.19 log base 2 | TOP1 (protein, UniProt P11387 2-765, looked up) DNA topoisomerase 1: SGDHLHNDSQIEADFRLNDSHKHKDKHKDREHRHKEHKKEKDREKSKHSNSEHKDSEKKHKEKEKTKHKDGSSEKHKDKHKDRDKEKRKEEKVRASGDAKIKKEKENGFSSPPQIKDEPEDDGYFVPPKEDIKPLKRPRDEDDADYKPKKIKTEDTKKEKKRKLEEEEDGKLKKPKNKDKDKKVPEPDNKKKKPKKEEEQKWKWWEEERYPEGIKWKFLEHKGPVFAPPYEPLPENVKFYYDGKVMKLSPKAEEVATFFAKMLDHEYTTKEIFRKNFFKDWRKEMTNEEKNIITNLSKCDFTQMSQYFKAQTEARKQMSKEEKLKIKEENEKLLKEYGFCIMDNHKERIANFKIEPPGLFRGRGNHPKMGMLKRRIMPEDIIINCSKDAKVPSPPPGHKWKEVRHDNKVTWLVSWTENIQGSIKYIMLNPSSRIKGEKDWQKYETARRLKKCVDKIRNQYREDWKSKEMKVRQRAVALYFIDKLALRAGNEKEEGETADTVGCCSLRVEHINLHPELDGQEYVVEFDFLGKDSIRYYNKVPVEKRVFKNLQLFMENKQPEDDLFDRLNTGILNKHLQDLMEGLTAKVFRTYNASITLQQQLKELTAPDENIPAKILSYNRANRAVAILCNHQRAPPKTFEKSMMNLQTKIDAKKEQLADARRDLKSAKADAKVMKDAKTKKVVESKKKAVQRLEEQLMKLEVQATDREENKQIALGTSKLNYLDPRITVAWCKKWGVPIEKIYNKTQREKFAWAIDMADEDYEF | 3.47 log base 2 | 3.87 log base 2
